Test results from US10696631B2 (priority 2016, dated 2020).
Read-outs that look alike come from different tables or passages of the source.

Key:
U87MG xenografts = assay: MicroPET imaging and biodistribution in U87MG xenografts
Description: (§1) Female athymic nude mice (Harlan Laboratories) were housed in an animal facility under pathogen-free conditions. Tumor model was developed in 5 to 6 weeks old female athymic nude mice by injection of 5×10^6 cells into their right shoulders. The mice underwent small-animal PET studies when the tumor volume reached 300 mm^3 (14-20 days after inoculation), and received ^90Y radionuclide therapy when the tumor volume reached 150 mm^3 (10-14 days after inoculation).
(§2) Blood, muscle, bone, liver, kidneys, spleen, intestine, heart and tumor were collected and wet-weighed. […] Radioactivity was measured in a γ-counter. The results were expressed % ID/g.

[1] = type: in vitro ADME, mouse
Description: At each time point, an aliquot was taken and loaded on iTLC plate and developed in for RadioTLC measurements.

[2] = mouse
Description: The red blood cells were separated from the plasma using centrifugation (3500 rpm for 5 min). […] The extracted soup was taken, filter on 0.45 μm filter and injected into an analytical HPLC using system 1.

U87MG cells = test system: U87MG cells
Description: (§3) All the cells were supplemented with 10% fetal bovine serum, 100 IU/mL penicillin, and […] streptomycin. Cells were grown in humidified atmosphere containing 5% CO2 at 37° C.

HT29 cells = assay: Cellular uptake and internalization in HT29 cells; type: cell-based, human
Description: as §3

HT29 xenografts = settings: mouse, in vivo
Description: as §1, §2

MDA-MB-435 xenografts = settings: mouse, in vivo
Description: as §1, §2

[3] = human, in vivo
glioblastoma [4] = settings: human, in vivo
glioblastoma [5] = assay: PET in a patient with WHO stage IV glioblastoma; settings: GBM patient
[6] = PET/CT and dosimetry calculation in healthy volunteers
U87MG tumor [7] = assay: 90Y radiotherapy in U87MG tumor bearing mice; type: in vivo, mouse
Description: NMEB-RGD was applied to integrin αvβ3 targeted radiotherapy. […] Similar pattern was observed after the second injection.

HT29 tumor = type: in vivo, mouse; settings: HT-29 tumor xenografts, 7.4 MBq
Description: In order to test the specificity of ^90Y-DMEB-RGD radiotherapy to integrin αvβ3, the efficacy of 7.4 MBq ^90Y-DMEB-RGD in HT29 that expresses lower human integrin levels but has moderate expression of mouse integrin was tested (FIG. 6). […] Injection of HT29 tumor bearing mice with 7.4 MBq ^90Y-DMEB-RGD was compared in the same model to injection of saline (FIG. 18A). […] HT-29 treated and non-treated mice were sacrificed at day 26 post injection due to tumors ulcer.

U87MG tumor [8] = assay: 18F-FDG and 18F-FLT PET imaging after 90Y radiotherapy; type: in vivo, mouse
U87MG tumor [9] = assay: Histopathologic staining after targeted radiotherapy (CD31, Ki-67, TUNEL, H&E); type: in vivo, mouse
Description: U87MG tumor samples from Groups A-F were collected and sectioned after the animals were sacrificed. […] After being washed three times with PBS, samples were mounted with DAPI for staining of cell nuclei (Vector). Fluorescence images were acquired with an epifluorescence microscope (200×; Olympus, X81).
Immunofluorescent terminal deoxynucleotidetransferase-mediated biotin-dUTP labeling (TUNEL) analysis was done by use of a commercial available kit (Roche Applied Science). According to the manufacture's specifications, samples were fixed with 10% formalin and permeabilized by incubation with 0.1% Triton for 2 min on ice. After fixation and permeabilization, 50 μL of TUNEL reaction mixture were added on the samples. The slides were then incubated in a humidified atmosphere for 60 min at 37° C. in the dark. After rinsing with PBS and mounting with DAPI (Vector), samples were observed under an epifluorescence microscope using GFP channel.
CD31 staining to evaluate tumor vasculature, Ki-67 staining to evaluate tumor proliferation and TUNEL staining to determine the DNA damage were done for all the six groups (A-F). For groups A, E and F that had large necrotic area, staining was focused on the tumor rim where tumor cells were alive.

[10] = human, intravenous administration, n = 3

Cc1cc(-c2ccc(NC(=O)CN3CCN4CCN(CC3)CC(=O)[O][64Cu][O]C(=O)C4)c(C)c2)ccc1N=Nc1ccc2c(S(=O)(=O)O)cc(S(=O)(=O)O)c(N)c2c1O [64Cu-NEB]
tumor uptake (U87MG xenografts; U87MG xenografts, 24 h p.i., PET): approximately 8 % ID/g
uptake in the tumor (U87MG xenografts; U87MG xenografts, up to 4 h p.i.): 6-7 % ID/g
order of tumor uptake among xenografts (U87MG xenografts; U87MG, HT29 and MDA-MB-435 xenografts): U87MG>HT29>MDA-MB-435
accumulation in the blood compared with the other tracers (U87MG xenografts; all time points): highest accumulation in the blood at all time points

Cc1cc(-c2ccc(NC(=O)[C@@H](CCCCNC(=O)CCN3C(=O)CC(SCC(=O)NCCCC[C@H]4NC(=O)[C@H](Cc5ccccc5)NC(=O)[C@H](CC(=O)O)NC(=O)CNC(=O)[C@H](CCCNC(=N)N)NC4=O)C3=O)NC(=O)CN3CCN(CC(=O)O)CCN(CC(=O)O)CC3)c(C)c2)ccc1/N=N/c1ccc2c(S(=O)(=O)O)cc(S(=O)(=O)O)c(N)c2c1O (some centres unmarked) [64Cu-NMEB-RGD, metal not drawn]
stability in mouse serum (de-metalation) [1]: stable in mouse serum for up to 24 h
stability in the blood in vivo [2]: stable up to 4 h in the blood
radioactivity extraction bound to the blood proteins fraction ([2]; in vivo): Over 90%
cell uptake (U87MG cells; U87MG cells, 4 h): 1.86±0.22 % of total input
cell uptake, effect of albumin in the medium (U87MG cells; all time points): significantly higher in the absence of albumin in the medium
internalization (U87MG cells; time points later than 5 min): most of ^64Cu-NMEB-RGD uptake was internalized
cell uptake (HT29 cells): 0.76±0.03%
tumor accumulation, % ID/g max (U87MG xenografts; U87MG xenografts, 4 and 24 h p.i.): 27-30 % ID/g
tumor uptake (max) higher than uptake of 64Cu-NOTA-c(RGDfk) (U87MG xenografts; mouse, in vivo): 15 times
tumor uptake blocked by (U87MG xenografts; mouse, in vivo): 55-65%
tumor uptake compared with U87MG (HT29 xenografts): significantly lower than U87MG at all time points
tumor uptake compared with U87MG (MDA-MB-435 xenografts): significantly lower than U87MG at all time points
accumulation in normal organs [3]: no undesired accumulation in normal organs
Estimated absorbed dose, Adrenals, Mean ([3]; iv): 0.0319 mSv/MBq
Estimated absorbed dose, Brain, Mean ([3]; iv): 0.0077 mSv/MBq
Estimated absorbed dose, Breasts, Mean ([3]; iv): 0.0241 mSv/MBq
Estimated absorbed dose, Gallbladder Wall, Mean ([3]; iv): 0.0346 mSv/MBq
Estimated absorbed dose, Heart Wall, Mean ([3]; iv): 0.0298 mSv/MBq
Estimated absorbed dose, Liver, Mean ([3]; iv): 0.1012 mSv/MBq
Estimated absorbed dose, Lower Large Intestine Wall, Mean ([3]; iv): 0.0291 mSv/MBq
Estimated absorbed dose, Lungs, Mean ([3]; iv): 0.0200 mSv/MBq
Estimated absorbed dose, Muscle, Mean ([3]; iv): 0.0127 mSv/MBq
Estimated absorbed dose, Osteogenic Cells, Mean ([3]; iv): 0.0528 mSv/MBq
Estimated absorbed dose, Ovaries, Mean ([3]; iv): 0.0294 mSv/MBq
Estimated absorbed dose, Pancreas, Mean ([3]; iv): 0.0647 mSv/MBq
Estimated absorbed dose, Red Marrow, Mean ([3]; iv): 0.0230 mSv/MBq
Estimated absorbed dose, Skin, Mean ([3]; iv): 0.0219 mSv/MBq
Estimated absorbed dose, Small Intestine, Mean ([3]; iv): 0.0545 mSv/MBq
Estimated absorbed dose, Spleen, Mean ([3]; iv): 0.1293 mSv/MBq
Estimated absorbed dose, Stomach Wall, Mean ([3]; iv): 0.0301 mSv/MBq
Estimated absorbed dose, Testes, Mean ([3]; iv): 0.0229 mSv/MBq
Estimated absorbed dose, Thymus, Mean ([3]; iv): 0.0261 mSv/MBq
Estimated absorbed dose, Thyroid, Mean ([3]; iv): 0.0248 mSv/MBq
Estimated absorbed dose, Total Body, Mean ([3]; iv): 0.0299 mSv/MBq
Estimated absorbed dose, Upper Large Intestine Wall, Mean ([3]; iv): 0.0317 mSv/MBq
Estimated absorbed dose, Urinary Bladder Wall, Mean ([3]; iv): 0.0268 mSv/MBq
Estimated absorbed dose, Uterus, Mean ([3]; iv): 0.0334 mSv/MBq
T(max/N), tumor/non-tumor ratio (glioblastoma [4]): 73.4
T(max/N), tumor/non-tumor ratio (glioblastoma [5]; 0.5 h): 8.36
T(mean/N), tumor/non-tumor ratio (glioblastoma [5]; 0.5 h): 4.13
Tumor-SUVmax (glioblastoma [5]; 0.5 h): 1.84
Tumor-SUVmean (glioblastoma [5]; 0.5 h): 0.91
T(max/N), tumor/non-tumor ratio (glioblastoma [5]; 1 h): 9.78
T(mean/N), tumor/non-tumor ratio (glioblastoma [5]; 1 h): 4.96
Tumor-SUVmax (glioblastoma [5]; 1 h): 2.74
Tumor-SUVmean (glioblastoma [5]; 1 h): 1.39
T(max/N), tumor/non-tumor ratio (glioblastoma [5]; 8 h): 25.35
T(mean/N), tumor/non-tumor ratio (glioblastoma [5]; 8 h): 13.05
Tumor-SUVmax (glioblastoma [5]; 8 h): 5.07
Tumor-SUVmean (glioblastoma [5]; 8 h): 2.61
T(max/N), tumor/non-tumor ratio (glioblastoma [5]; 12 h): 32.89
T(mean/N), tumor/non-tumor ratio (glioblastoma [5]; 12 h): 17.21
Tumor-SUVmax (glioblastoma [5]; 12 h): 6.25
Tumor-SUVmean (glioblastoma [5]; 12 h): 3.27
T(max/N), tumor/non-tumor ratio (glioblastoma [5]; 20 h): 63.33
T(mean/N), tumor/non-tumor ratio (glioblastoma [5]; 20 h): 34.5
Tumor-SUVmax (glioblastoma [5]; 20 h): 3.8
Tumor-SUVmean (glioblastoma [5]; 20 h): 2.07
T(max/N), tumor/non-tumor ratio (glioblastoma [5]; 20.5 h): 66.16
T(mean/N), tumor/non-tumor ratio (glioblastoma [5]; 20.5 h): 34.5
Tumor-SUVmax (glioblastoma [5]; 20.5 h): 3.97
Tumor-SUVmean (glioblastoma [5]; 20.5 h): 2.07
T(mean/N), tumor/non-tumor ratio (glioblastoma [5]; 24 h): 40.2
Tumor-SUVmax (glioblastoma [5]; 24 h): 3.67
Tumor-SUVmean (glioblastoma [5]; 24 h): 2.01
effective dose ([6]; healthy volunteers): 0.1166 Rem/mCi
Effective Dose Equivalent, Mean [6, 10]: 0.0454 mSv/MBq
Effective Dose, Mean [6, 10]: 0.0315 mSv/MBq
Estimated absorbed dose, Kidneys, Mean [6, 10]: 0.0994 mSv/MBq
exposure ([6]; subject injected with 8 mCi): 0.933 Rem

Cc1cc(-c2ccc(NC(=O)[C@@H](CCCCNC(=O)CCN3C(=O)CC(SCC(=O)NCCCC[C@H]4NC(=O)[C@H](Cc5ccccc5)NC(=O)[C@H](CC(=O)O)NC(=O)CNC(=O)[C@H](CCCNC(=N)N)NC4=O)C3=O)NC(=O)CN3CCN(CC(=O)O)CCN(CC(=O)O)CCN(CC(=O)O)CC3)c(C)c2)ccc1/N=N/c1ccc2c(S(=O)(=O)O)cc(S(=O)(=O)O)c(N)c2c1O (some centres unmarked) [90Y-DMEB-RGD, metal not drawn]
tumor volume (U87MG tumor [7]; 1.75 MBq, second injection): No effect on the tumor volume
tumor volume (U87MG tumor [7]; 3.7 MBq, second injection): Minor tumor shrink
survival compared with saline and 90Y-DOTA-c(RGDfK) groups (U87MG tumor [7]; 7.4, 3.7 and 1.75 MBq groups): significant differences (p<0.01)
tumor volume compared with saline group (U87MG tumor [7]; 7.4, 3.7 and 1.75 MBq groups, day 6 post treatment): significantly lower (p<0.01)
body weight loss (U87MG tumor [7]; 7.4 MBq, day 2, regained at day 4): 5%
tumor volume (U87MG tumor [7]; 7.4 MBq, first injection): reduction of volume by day 8
tumor volume (U87MG tumor [7]; 7.4 MBq, second injection 14 days post initial treatment): tumors almost disappeared up to 30 days post initial treatment
tumor growth (HT29 tumor): delay of tumor growth
18F-FLT PET, tumor proliferation (U87MG tumor [8]; 5 and 12 days post initial treatment, group B 7.4 MBq): significant less 18F-FLT uptake
18F-FDG PET, tumor metabolism (U87MG tumor [8]; 3 days post-injection): decreased metabolism
18F-FDG PET, tumor metabolism (U87MG tumor [8]; 10 days post-treatment, group B 7.4 MBq): significant decreased metabolism
cell apoptosis (TUNEL staining) (U87MG tumor [9]; group B 7.4 MBq): considerably more cell apoptosis
cell proliferation (Ki-67 staining) (U87MG tumor [9]; group B 7.4 MBq): significantly reduced cell proliferation
tumor vasculature (CD31 staining) (U87MG tumor [9]; group B 7.4 MBq): lesser than that in the other groups
Hematoxylin and eosin staining, tumor necrosis (U87MG tumor [9]; group B, two doses of 7.4 MBq): most of the tumor area in Group B was already necrotic
